Target: T1, M-tropic HIV-1MN envelope glycoprotein gp120 (HIV-1 MN, UniProt P05877 32-513)
T1 construct: also called HIV-1 gp120; HIV-MN gp120
Assay: fluorescent bead adhesion assay on K562-DC-SIGN cells

B1: DC-SIGN (receptor)
chain: MSDSKEPRLQQLGLLEEEQLRGLGFRQTRGYKSLAGCLGHGPLVLQLLSFTLLAGLLVQVSKVPSSISQEQSRQDAIYQNLTQLKAAVGELSEKSKLQEIYQELTQLKAAVGELPEKSKLQEIYQELTRLKAAVGELPEKSKLQEIYQELTWLKAAVGELPEKSKMQEIYQELTRLKAAVGELPEKSKQQEIYQELTRLKAAVGELPEKSKQQEIYQELTRLKAAVGELPEKSKQQEIYQELTQLKAAVERLCHPCPWEWTFFQGNCYFMSNSQRNWHDSITACKEVGAQLVVIKSAEEQNFLQLQSSRSNRFTWMGLSDLNQEGTWQWVDGSPLLPSFKQYWNRGEPNNVGEEDCAEFSGNGWNDDKCNLAKFWICKKSAASCSRDEEQFLSPAPATPNPPPA
notes: whole, on cells; also called K562-DC-SIGN; THP-1-DC-SIGN
  binding result: binds

From patent publication US20070134693A1 (published 2007)
